What was measured:
human LILRA6 = target: T1, human LILRA6 (human, UniProt Q6PI73 24-481); assay: flow cytometry, LILRA6 CHOs
T1 construct: Over-expressed on CHO-s cells; also called hLILRA6

[1] = target: T2, human LILRB2 expressed on cells (human, UniProt Q8N423 22-597); assay: flow cytometry, human whole blood, monocytes
T2 construct: CHO-s cells over-expressing full-length human LILRB2, or primary human macrophages and dendritic cells; also called hLILRB2-CHO-s; hLILRB2+ CHO-s

[2] = target: T2, human LILRB2 expressed on cells; assay: blocking of HLA-A2 tetramer on LILRB2 CHOs, flow cytometry, mAb 10 ug/mL
Description: (§1) In the secondary screen, 1×10⁵ CHO-s cells over-expressing human LILRB2 were plated in 96-well round-bottom tissue culture-treated plate and washed twice with 1×DPBS (Gibco) and incubated with 10 μg/mL primary antibody (anti-LILRB2 mAbs or control) prepared in 50 μL FACS buffer (1×DPBS containing 2% HI-FBS (Sigma)+0.05% Sodium Azide). After incubation with mAbs for 30 minutes at 4° C., cells were washed twice in FACS buffer and then resuspended in 50 μL of FACS buffer containing 5 μg/mL APC-conjugated HLA-A2 or HLA-G tetramer (Fred Hutch). Cells were incubated protected from light for 30-60 minutes at 4° C. After incubation with tetramer, cells were washed in FACS buffer and re-suspended in fix buffer (1.5% paraformaldehyde diluted in 1×DPBS). Samples were analyzed using the Celesta flow cytometer analyzer (BD Biosciences). Data represent percent tetramer blocked by mAbs relative to tetramer alone, calculated according to the following equation: […]

human LILRA1 = target: T3, human LILRA1 (human, UniProt O75019 17-489); assay: flow cytometry, LILRA1 CHOs
T3 construct: Over-expressed on CHO-s cells; also called hLILRA1

human LILRB5 = target: T4, human LILRB5 (human, UniProt O75023 24-590); assay: flow cytometry, LILRB5 CHOs
T4 construct: Over-expressed on CHO-s cells; also called hLILRB5

[3] = target: T2, human LILRB2 expressed on cells; assay: flow cytometry, LILRB2 CHOs
[4] = target: T2, human LILRB2 expressed on cells; assay: flow cytometry, human whole blood, neutrophils
human LILRB1 = target: T5, human LILRB1 (human, UniProt Q8NHL6 24-650); assay: flow cytometry, LILRB1 CHOs
T5 construct: Over-expressed on CHO-s cells; also called hLILRB1

human LILRB4 = target: T6, human LILRB4 (human, UniProt Q8NHJ6 22-448); assay: flow cytometry, LILRB4 CHOs
T6 construct: Over-expressed on CHO-s cells; also called hLILRB4

human LILRB3 = target: T7, human LILRB3 (human, UniProt O75022 24-631); assay: flow cytometry, LILRB3 CHOs
T7 construct: Over-expressed on CHO-s cells; also called hLILRB3

[5] = target: T8, Cyno Monocytes / Cyno Neutrophils (Macaca fascicularis); assay: flow cytometry, cyno whole blood, neutrophils
T8 construct: cell surface, primary blood cells; also called LILRB2+ populations in cyno whole blood

[6] = target: T2, human LILRB2 expressed on cells; assay: blocking of HLA-G tetramer on LILRB2 CHOs, flow cytometry, mAb 10 ug/mL
Description: as §1

[7] = target: T9, Rhesus Monocytes / Rhesus Neutrophils (Macaca mulatta); assay: flow cytometry, rhesus whole blood, monocytes
T9 construct: cell surface, primary blood cells; also called LILRB2+ populations in rhesus whole blood

[8] = target: T8, Cyno Monocytes / Cyno Neutrophils; assay: flow cytometry, cyno whole blood, monocytes
[9] = target: T9, Rhesus Monocytes / Rhesus Neutrophils; assay: flow cytometry, rhesus whole blood, neutrophils
human LILRA3 = target: T10, human LILRA3 (human, UniProt Q8N6C8 24-439); assay: flow cytometry, LILRA3 CHOs
T10 construct: Over-expressed on CHO-s cells; also called hLILRA3

human LILRA2 = target: T11, human LILRA2 (human, UniProt Q8N149 24-483); assay: flow cytometry, LILRA2 CHOs
T11 construct: Over-expressed on CHO-s cells; also called hLILRA2

human LILRB2-His = human LILRB2-His (human, UniProt Q8N423 22-460); assay: SPR, Sierra Sensors MASS-2; antibody captured on anti-human Fc, LILRB2-His 65 to 0.27 nM, 1:1 Langmuir fit
[10] = target: T2, human LILRB2 expressed on cells; assay: cell-based or functional assay
human LILRA4 = target: T12, human LILRA4 (human, UniProt P59901 24-499); assay: flow cytometry, LILRA4 CHOs
T12 construct: Over-expressed on CHO-s cells; also called hLILRA4

human LILRA5 = target: T13, human LILRA5 (human, UniProt A6NI73 42-299); assay: flow cytometry, LILRA5 CHOs
T13 construct: Over-expressed on CHO-s cells; also called hLILRA5
T13 sequence (A6NI73 42-299 limits assumed): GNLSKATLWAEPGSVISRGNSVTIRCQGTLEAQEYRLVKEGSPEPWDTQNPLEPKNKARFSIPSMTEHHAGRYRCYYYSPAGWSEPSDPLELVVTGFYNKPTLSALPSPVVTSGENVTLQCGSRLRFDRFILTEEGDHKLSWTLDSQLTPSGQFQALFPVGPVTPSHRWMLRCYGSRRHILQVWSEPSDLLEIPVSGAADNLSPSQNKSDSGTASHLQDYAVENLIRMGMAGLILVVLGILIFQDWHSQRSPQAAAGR

Chain of human LILRB2-His (Q8N423 other isoform, or with tags, fused parts or gaps): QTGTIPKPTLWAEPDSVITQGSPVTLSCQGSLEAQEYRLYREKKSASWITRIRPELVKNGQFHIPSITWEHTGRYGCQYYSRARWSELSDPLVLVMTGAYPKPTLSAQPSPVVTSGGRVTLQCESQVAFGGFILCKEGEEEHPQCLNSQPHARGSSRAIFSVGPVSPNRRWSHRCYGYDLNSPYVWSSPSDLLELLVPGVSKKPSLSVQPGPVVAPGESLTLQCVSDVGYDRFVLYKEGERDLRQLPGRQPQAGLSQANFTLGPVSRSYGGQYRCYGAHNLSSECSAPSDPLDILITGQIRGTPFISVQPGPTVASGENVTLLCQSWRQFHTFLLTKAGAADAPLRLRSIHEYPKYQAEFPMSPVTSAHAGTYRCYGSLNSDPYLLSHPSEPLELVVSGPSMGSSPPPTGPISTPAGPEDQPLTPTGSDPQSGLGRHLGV
T2 sequence (Q8N423 other isoform, or with tags, fused parts or gaps limits assumed): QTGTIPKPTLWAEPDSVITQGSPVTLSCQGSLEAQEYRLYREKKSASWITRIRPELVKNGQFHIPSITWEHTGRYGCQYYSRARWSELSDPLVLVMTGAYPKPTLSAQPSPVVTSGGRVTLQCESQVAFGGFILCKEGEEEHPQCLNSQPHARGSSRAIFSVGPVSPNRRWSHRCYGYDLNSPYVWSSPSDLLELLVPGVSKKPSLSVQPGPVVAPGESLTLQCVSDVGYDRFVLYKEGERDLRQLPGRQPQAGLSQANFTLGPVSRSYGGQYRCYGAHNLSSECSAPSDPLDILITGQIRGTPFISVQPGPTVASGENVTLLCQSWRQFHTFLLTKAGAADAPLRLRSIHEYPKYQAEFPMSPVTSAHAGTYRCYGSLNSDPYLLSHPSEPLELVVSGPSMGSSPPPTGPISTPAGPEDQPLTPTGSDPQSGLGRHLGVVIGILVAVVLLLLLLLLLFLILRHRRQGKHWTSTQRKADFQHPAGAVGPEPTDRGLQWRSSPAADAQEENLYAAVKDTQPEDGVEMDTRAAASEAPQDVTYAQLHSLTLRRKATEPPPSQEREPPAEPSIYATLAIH
T11 sequence (Q8N149 24-483 S135L limits assumed): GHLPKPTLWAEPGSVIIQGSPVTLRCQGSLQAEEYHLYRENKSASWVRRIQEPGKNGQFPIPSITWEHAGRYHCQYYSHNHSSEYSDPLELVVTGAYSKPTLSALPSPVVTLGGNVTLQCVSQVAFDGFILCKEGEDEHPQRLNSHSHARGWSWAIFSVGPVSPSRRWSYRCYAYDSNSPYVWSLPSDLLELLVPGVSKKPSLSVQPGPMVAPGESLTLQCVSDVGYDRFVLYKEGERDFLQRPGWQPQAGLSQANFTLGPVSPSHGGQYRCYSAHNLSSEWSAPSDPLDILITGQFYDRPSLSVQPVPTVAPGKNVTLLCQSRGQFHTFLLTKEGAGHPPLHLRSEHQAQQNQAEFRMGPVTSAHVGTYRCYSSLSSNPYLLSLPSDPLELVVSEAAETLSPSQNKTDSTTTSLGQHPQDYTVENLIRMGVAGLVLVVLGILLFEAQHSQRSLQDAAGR
T5 sequence (Q8NHL6 24-650 limits assumed): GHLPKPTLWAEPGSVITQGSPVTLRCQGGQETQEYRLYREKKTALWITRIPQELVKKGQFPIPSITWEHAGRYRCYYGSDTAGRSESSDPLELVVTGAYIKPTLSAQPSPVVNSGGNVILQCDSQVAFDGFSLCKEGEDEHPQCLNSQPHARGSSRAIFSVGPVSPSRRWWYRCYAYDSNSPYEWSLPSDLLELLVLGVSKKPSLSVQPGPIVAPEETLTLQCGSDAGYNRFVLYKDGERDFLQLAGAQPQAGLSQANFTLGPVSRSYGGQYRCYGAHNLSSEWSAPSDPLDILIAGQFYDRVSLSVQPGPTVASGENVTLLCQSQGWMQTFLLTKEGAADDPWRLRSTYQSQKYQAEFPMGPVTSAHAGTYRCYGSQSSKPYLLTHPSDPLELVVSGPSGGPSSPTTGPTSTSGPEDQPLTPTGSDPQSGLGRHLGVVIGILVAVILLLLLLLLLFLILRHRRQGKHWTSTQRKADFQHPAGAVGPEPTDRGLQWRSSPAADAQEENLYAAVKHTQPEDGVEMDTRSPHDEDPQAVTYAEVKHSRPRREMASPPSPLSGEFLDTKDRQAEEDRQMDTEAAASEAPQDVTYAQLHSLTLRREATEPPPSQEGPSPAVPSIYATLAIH
T3 sequence (O75019 17-489 limits assumed): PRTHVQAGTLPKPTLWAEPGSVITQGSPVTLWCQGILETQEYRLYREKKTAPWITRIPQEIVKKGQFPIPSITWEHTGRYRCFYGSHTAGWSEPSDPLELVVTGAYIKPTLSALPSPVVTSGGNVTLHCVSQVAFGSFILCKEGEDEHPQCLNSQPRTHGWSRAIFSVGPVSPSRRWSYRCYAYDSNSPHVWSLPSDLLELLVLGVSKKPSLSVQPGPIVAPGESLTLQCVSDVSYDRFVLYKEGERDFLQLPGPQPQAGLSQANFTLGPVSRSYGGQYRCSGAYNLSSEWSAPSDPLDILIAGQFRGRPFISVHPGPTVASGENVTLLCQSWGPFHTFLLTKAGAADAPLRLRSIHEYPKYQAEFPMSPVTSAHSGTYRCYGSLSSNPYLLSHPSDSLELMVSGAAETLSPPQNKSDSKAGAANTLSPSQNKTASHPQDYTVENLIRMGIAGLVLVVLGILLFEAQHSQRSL
T12 sequence (P59901 other isoform, or with tags, fused parts or gaps limits assumed): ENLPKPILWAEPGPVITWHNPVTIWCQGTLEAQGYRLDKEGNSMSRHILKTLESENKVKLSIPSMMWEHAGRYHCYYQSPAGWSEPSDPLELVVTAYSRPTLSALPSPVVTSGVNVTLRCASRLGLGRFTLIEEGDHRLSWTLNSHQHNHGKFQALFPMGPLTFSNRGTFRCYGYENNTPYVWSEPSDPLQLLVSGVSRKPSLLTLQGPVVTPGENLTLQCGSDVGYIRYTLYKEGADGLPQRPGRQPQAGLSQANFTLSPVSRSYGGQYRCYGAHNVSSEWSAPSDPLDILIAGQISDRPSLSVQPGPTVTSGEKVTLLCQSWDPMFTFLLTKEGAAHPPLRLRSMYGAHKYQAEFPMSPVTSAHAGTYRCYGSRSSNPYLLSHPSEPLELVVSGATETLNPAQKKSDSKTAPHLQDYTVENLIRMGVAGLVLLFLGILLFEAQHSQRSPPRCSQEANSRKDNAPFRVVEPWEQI
T1 sequence (Q6PI73 24-481 limits assumed): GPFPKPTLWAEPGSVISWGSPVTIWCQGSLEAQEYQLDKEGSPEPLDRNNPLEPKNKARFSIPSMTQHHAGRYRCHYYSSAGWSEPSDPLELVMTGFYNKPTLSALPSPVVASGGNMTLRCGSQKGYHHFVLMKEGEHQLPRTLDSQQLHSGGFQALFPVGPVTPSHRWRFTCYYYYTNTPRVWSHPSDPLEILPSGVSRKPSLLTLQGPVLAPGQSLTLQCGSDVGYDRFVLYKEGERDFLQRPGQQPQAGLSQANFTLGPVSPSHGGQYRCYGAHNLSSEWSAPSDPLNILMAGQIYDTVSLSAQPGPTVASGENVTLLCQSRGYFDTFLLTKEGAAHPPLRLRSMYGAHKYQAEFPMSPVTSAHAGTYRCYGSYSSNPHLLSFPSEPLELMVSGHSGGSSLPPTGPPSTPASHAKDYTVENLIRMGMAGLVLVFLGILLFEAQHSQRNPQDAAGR
T10 sequence (Q8N6C8 24-439 limits assumed): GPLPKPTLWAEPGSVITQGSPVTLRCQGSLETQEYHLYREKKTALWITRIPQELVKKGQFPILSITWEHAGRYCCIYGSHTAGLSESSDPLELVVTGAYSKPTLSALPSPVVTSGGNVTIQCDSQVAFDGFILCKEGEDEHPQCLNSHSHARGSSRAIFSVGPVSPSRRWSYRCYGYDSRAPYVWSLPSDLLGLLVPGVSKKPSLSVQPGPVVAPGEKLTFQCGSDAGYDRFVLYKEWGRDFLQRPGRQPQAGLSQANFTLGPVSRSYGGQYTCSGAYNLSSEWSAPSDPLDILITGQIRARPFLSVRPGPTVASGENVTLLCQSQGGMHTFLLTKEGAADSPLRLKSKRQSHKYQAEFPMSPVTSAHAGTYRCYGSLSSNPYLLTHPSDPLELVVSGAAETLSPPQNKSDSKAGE
T4 sequence (O75023 24-590 P542R limits assumed): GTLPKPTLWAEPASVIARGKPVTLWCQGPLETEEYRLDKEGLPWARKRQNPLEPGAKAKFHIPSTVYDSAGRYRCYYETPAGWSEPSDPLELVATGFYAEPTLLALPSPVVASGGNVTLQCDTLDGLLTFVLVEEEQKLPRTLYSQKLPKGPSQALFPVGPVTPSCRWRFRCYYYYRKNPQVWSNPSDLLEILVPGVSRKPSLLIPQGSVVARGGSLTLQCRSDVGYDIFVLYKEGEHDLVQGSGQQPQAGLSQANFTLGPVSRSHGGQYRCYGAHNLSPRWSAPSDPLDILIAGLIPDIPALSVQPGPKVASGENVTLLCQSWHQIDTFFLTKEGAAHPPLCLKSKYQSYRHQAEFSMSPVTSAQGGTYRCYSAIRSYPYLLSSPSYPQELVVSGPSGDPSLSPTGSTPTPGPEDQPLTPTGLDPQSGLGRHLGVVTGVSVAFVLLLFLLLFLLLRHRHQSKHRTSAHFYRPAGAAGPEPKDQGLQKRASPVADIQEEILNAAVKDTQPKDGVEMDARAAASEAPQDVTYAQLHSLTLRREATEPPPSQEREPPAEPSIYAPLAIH

B1: J-19 (antibody, human IgG4 S228P, kappa, V domains shown)
VH: QVTLKESGPGILQPSHTLSLTCSFSGFSLNTYAMGVSWIRQPSGKGLEWLASIWWNGNKYNNPSLKSRLTVSKDTSNNQAFLKVTSVDTADTATYYCAHSRIIRFTDYVMDAWGQGASVTVSS
VL: DIQMTQSPASLSTFLGEPVTIECRASEDIYNDLAWYQQKPGKSPQLLIYNANSLHTGVPSRFSGSGSGTQYSLKINSLQSEDVASYFCQQYYDYPLTFGSGTKLEIKR
notes: Human IgG4 chimera from a rat immunization; also called J-19.h
binding (fold over iso) (human LILRA6): 1.07 fold over iso | binding result (human LILRA6): no binding | Human Monocytes binding (fold over iso) [1]: 12.3 fold over iso | HLA-A2:LILRB2 CHOs blocking (% blocked) [2]: 95.3 % blocked | binding (fold over iso) (human LILRA1): -3.31 fold over iso | binding result (human LILRA1): no binding | binding (fold over iso) (human LILRB5): 1.19 fold over iso | binding result (human LILRB5): no binding | binding (fold over iso) [3]: 3.78 fold over iso | Human Neutrophils binding (fold over iso) [4]: 4.5 fold over iso | binding (fold over iso) (human LILRB1): 1.05 fold over iso | binding result (human LILRB1): no binding | binding (fold over iso) (human LILRB4): 1.03 fold over iso | binding result (human LILRB4): no binding | binding (fold over iso) (human LILRB3): 1.09 fold over iso | binding result (human LILRB3): no binding | Cyno Neutrophils binding (fold over iso) [5]: 2.35 fold over iso | HLA-G:LILRB2 CHOs blocking (% blocked) [6]: 97 % blocked | Rhesus Monocytes binding (fold over iso) [7]: 6.79 fold over iso | Cyno Monocytes binding (fold over iso) [8]: 17.9 fold over iso | Rhesus Neutrophils binding (fold over iso) [9]: 21.9 fold over iso | binding (fold over iso) (human LILRA3): 0.97 fold over iso | binding result (human LILRA3): no binding | binding (fold over iso) (human LILRA2): -0.51 fold over iso | binding result (human LILRA2): no binding | Kd (human LILRB2-His): 2.62 nM | koff (human LILRB2-His): 0.00135 s⁻¹ | kon (human LILRB2-His): 515000 M⁻¹ s⁻¹ | CCL2 production (fold over LPS alone) [10]: 1.69 fold over LPS alone | IL-6 production (fold over LPS alone) [10]: 2.72 fold over LPS alone | IL-10 production (fold over LPS alone) [10]: 0.8 fold over LPS alone | TNFa production (fold over LPS alone) [10]: 8.9 fold over LPS alone | binding (fold over iso) (human LILRA4): -26.8 fold over iso | binding result (human LILRA4): no binding | binding (fold over iso) (human LILRA5): -0.62 fold over iso | binding result (human LILRA5): no binding

— US20200339690A1 (JOUNCE THERAPEUTICS, published 2020)
